This data set deals with the molecule itself. In words: crystal structure; sitting drop vapor diffusion at 19 °C; space group P212121, two dimers per asymmetric unit; 4Mut at 6.0 mg/mL in 20 mM HEPES-NaOH pH 8.5, 0.5 mM CoCl2, 200 mM NaCl.

B1: SsoPox V82L/C258L/I261F/W263A (4Mut) (enzyme, Saccharolobus solfataricus, UniProt Q97VT7 1-314, looked up)
chain: MRIPLVGKDSIESKDIGFTLIHEHLRVFSEAVRQQWPHLYNEDEEFRNAVNEVKRAMQFGVKTIVDPTVMGLGRDIRFMEKLVKATGINLVAGTGIYIYIDLPFYFLNRSIDEIADLFIHDIKEGIQGTLNKAGFVKIAADEPGITKDVEKVIRAAAIANKETKVPIITHSNAHNNTGLEQQRILTEEGVDPGKILIGHLGDTDNIDYIKKIADKGSFIGLDRYGLDLFLPVDKRNETTLRLIKDGYSDKIMISHDYLCTFDAGTAKPEYKPKLAPRWSITLIFEDTIPFLKRNGVNEEVIATIFKENPKKFFS
notes: SsoPox, phosphotriesterase-like lactonase from Saccharolobus solfataricus, with four substitutions; primers run from the start codon (NdeI site) to behind the stop codon (HindIII site); Two cobalt atoms per protein by ICP-MS; also called SsoPox 4Mut; SsoPox-4Mut; source: E. coli BL21(DE3), pT7-7-4Mut, purified (thermoprecipitation, Q-Sepharose, Superdex 75, MonoQ)
As to B1, the binding result is “binds”.

The values above are taken from PMC7084321, “Structural and Functional Characterization of New SsoPox Variant Points to the Dimer Interface as a Driver for the Increase in Promiscuous Paraoxonase Activity” (International Journal of Molecular Sciences, 2020).
